Test results published in US5945329A, “Customized proteases” (Carlsberg A/S, priority 1997, dated 1999).

Legend:
[1] = biological target: T1, carboxypeptidase Y (CPD-Y) variant E145A (Glu145 replaced by alanine) (Saccharomyces cerevisiae, UniProt P00729, E256A); experiment: Aminolysis; KN(app) of nucleophile; assay type: biochemical, yeast; conditions: Table VI; substance of the line is the substrate (leaving group varied), pH 7.5
T1 construct: made in house; host or cells: S. cerevisiae W2579 (secreted)
T1 sequence (P00729 112-532 E256A): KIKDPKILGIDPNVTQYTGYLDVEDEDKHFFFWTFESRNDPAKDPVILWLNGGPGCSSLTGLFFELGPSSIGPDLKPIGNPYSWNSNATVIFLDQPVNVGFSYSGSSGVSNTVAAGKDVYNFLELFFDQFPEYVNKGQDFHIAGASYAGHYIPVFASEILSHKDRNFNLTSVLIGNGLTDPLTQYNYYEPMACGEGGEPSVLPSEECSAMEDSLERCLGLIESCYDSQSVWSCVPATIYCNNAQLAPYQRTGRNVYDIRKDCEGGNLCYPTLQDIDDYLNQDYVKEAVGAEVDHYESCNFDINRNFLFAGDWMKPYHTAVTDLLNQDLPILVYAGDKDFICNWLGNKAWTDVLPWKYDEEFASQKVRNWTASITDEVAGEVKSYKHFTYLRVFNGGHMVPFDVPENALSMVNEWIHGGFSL
Experimental: (§1) Aminolysis reactions were carried out in the following way. The nucleophile was dissolved in 50 mM Hepes, 5 mM EDTA and pH was adjusted to 7.5. Five (5) μl of substrate (8 mM FA-Ala-OBzl in methanol) was added to 190 μl nucleophile solution followed by 5 μl enzyme, resulting in a substrate concentration of 0.2 mM. For reactions carried out at pH 9.5, Hepes was replaced with Ches. During the reaction, 20 μl aliquots were removed from the reaction mixture and added to 50 μl 1% trifluoroacetic acid to quench the reaction. The reactant composition was determined by HPLC using a Waters HPLC equipped with a C-18 Waters Novapac 4μ reverse phase column and various gradients of acetonitrile in 0.1% trifluoroacetic acid. The separation was monitored at 302 nm allowing the direct quantification of the products from the integrated peak areas. The composition of the reaction mixture was determined at least twice during the reaction, the first time when 20-50% (preferably 35%) of the ester substrate had been consumed in the reaction and the second time when 50-90% (preferably 80%) of the substrate had been consumed. The products were collected and identified by amino acid analysis after acid hydrolysis using a Pharmacia Alpha Plus analyzer.
(§2) Further identification was obtained by co-chromatography of authentic standard compounds. The fraction of aminolysis (fa) was expressed as the ratio between the formed aminolysis product and the sum of all products being formed, i.e., unconsumed substrate was disregarded in the calculations. The KN(app), representing the nucleophile concentration at which fa is half the maximum value (a measure for the dissociation constant of the nucleophile), and famax (the highest possible fa obtained at saturation of the enzyme with nucleophile) were determined by fitting the values of fa obtained at a minimum of seven concentrations of nucleophile to a saturation. The value of fa obtained at the highest possible nucleophile concentration is designated fasat.
(§3) Aminolysis reactions were carried out in the following way. The nucleophile was dissolved in 50 mM HEPES, 5 mM EDTA and pH was adjusted to 7.5, 5 μl substrate (8 mM FA-Ala-OBzl or FA-Ala-Xaa-OH in methanol) was added to 190 μl nucleophile solution followed by 5 μl enzyme diluted in buffer to the appropriate concentration, resulting in a substrate concentration of 0.2 mM. During the reaction, 20 μl aliquots were removed from the reaction mixture and added to 50 μl 1% trifluoroacetic acid to quench the reaction. The reactant composition was determined by HPLC using a Waters HPLC equipped with a C-18 Waters Novapac 4μ reverse phase column and various gradients of acetonitrile in 0.1% trifluoroacetic acid. The separation was monitored at 302 nm allowing the direct quantification of the products from the integrated peak areas. The products were collected and identified by amino acid analysis after acid hydrolysis (Pharmacia Alpha Plus analyzer) and by co-chromatography of authentic standards. The fraction of aminolysis (fa) was expressed as the ratio between the formed aminolysis product and the sum of all products being formed, i.e. unconsumed substrate was disregarded in the calculations. The KN,app (a measure for the dissociation constant of the nucleophile) and famax (the highest possible fa obtained at saturation with nucleophile were determined by fitting the obtained fa values to the equation fa=famax /(1+KN,app /N).

[2] = biological target: T2, carboxypeptidase Y (CPD-Y) variant N51Q (Asn51 replaced with glutamine) (Saccharomyces cerevisiae, UniProt P00729, N162Q); experiment: Aminolysis; KN(app) of nucleophile; assay type: biochemical, yeast; conditions: Table VI; substance of the line is the substrate (leaving group varied), pH 7.5
T2 construct: made in house; host or cells: S. cerevisiae W2579 (secreted)
T2 sequence (P00729 112-532 N162Q): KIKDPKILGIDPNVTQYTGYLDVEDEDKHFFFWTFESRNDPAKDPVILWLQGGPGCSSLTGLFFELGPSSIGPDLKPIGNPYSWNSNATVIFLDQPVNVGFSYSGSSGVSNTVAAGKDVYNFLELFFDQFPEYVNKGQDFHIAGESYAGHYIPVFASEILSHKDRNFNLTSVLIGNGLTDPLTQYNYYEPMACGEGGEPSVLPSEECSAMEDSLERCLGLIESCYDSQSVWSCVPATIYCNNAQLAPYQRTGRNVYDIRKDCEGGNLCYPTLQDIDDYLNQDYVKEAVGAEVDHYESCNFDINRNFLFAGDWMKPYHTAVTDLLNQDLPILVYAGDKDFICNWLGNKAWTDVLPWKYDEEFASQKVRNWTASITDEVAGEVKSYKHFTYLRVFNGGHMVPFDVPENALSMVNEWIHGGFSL
Experimental: as §1, §2, §3

[3] = biological target: T3, carboxypeptidase Y (CPD-Y) variant E65A (Glu65 replaced by alanine) (Saccharomyces cerevisiae, UniProt P00729, E176A); experiment: Aminolysis; KN(app) of nucleophile; assay type: biochemical, yeast; conditions: Table VI; substance of the line is the substrate (leaving group varied), pH 7.5
T3 construct: made in house; host or cells: S. cerevisiae W2579 (secreted)
T3 sequence (P00729 112-532 E176A): as the sequence (P00729 112-532 E256A) above, with E65A, A145E counted along it
Experimental: as §1, §2, §3

[4] = biological target: T4, carboxypeptidase Y (CPD-Y) variant N51S (Asn51 replaced with serine) (Saccharomyces cerevisiae, UniProt P00729, N162S); experiment: Aminolysis; KN(app) of nucleophile; assay type: biochemical, yeast; conditions: Table VI; substance of the line is the substrate (leaving group varied), pH 7.5
T4 construct: made in house; host or cells: S. cerevisiae W2579 (secreted)
T4 sequence (P00729 112-532 N162S): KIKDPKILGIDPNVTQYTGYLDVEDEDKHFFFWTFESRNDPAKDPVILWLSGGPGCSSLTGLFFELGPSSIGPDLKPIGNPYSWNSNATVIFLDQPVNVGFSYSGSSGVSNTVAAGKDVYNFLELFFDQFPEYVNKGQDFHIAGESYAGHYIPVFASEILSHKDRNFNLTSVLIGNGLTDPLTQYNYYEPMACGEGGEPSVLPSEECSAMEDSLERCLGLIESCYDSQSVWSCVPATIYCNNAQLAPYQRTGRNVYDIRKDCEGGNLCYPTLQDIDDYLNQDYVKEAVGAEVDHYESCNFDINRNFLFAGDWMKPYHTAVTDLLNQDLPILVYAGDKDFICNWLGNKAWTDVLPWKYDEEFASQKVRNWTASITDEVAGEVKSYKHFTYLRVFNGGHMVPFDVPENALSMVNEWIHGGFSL
Experimental: as §1, §2, §3

[5] = biological target: T5, yeast carboxypeptidase Y (CPD-Y), wild type (SEQ ID NO:32) (Saccharomyces cerevisiae, UniProt P00729); experiment: Aminolysis of ester/peptide substrates; KN(app) of nucleophile; assay type: biochemical; conditions: Table VI; substance of the line is the substrate (leaving group varied), pH 7.5
T5 construct: purchased Carlbiotech, Copenhagen, Denmark
T5 sequence (P00729 112-532): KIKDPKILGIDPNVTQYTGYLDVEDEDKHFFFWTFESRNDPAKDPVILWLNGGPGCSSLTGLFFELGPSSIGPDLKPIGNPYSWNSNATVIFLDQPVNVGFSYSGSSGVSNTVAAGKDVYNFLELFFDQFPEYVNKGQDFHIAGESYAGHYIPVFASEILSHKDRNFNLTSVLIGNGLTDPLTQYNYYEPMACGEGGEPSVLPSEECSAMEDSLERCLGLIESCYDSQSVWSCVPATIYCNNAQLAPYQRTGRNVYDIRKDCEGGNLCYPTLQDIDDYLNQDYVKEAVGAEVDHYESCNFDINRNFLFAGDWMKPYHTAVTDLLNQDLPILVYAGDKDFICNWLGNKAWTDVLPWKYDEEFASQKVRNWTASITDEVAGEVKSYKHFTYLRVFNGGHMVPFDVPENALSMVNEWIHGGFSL
Experimental: as §1, §2, §3

| famax of transpeptidation (nucleophile H-Val-NH2) (FA-Ala-Val-OH) | famax of transpeptidation (nucleophile H-Val-NH2) (FA-Ala-Ala-OH) | kcat/KM of hydrolysis (FA-Phe-Val-OH) [M⁻¹ s⁻¹] | kcat/Km of hydrolysis (CBZ-Phe-Leu-OH) [M⁻¹ s⁻¹] | kcat/Km of hydrolysis (CBZ-Glu-Leu-OH) [M⁻¹ s⁻¹] | kcat/Km of hydrolysis (CBZ-Ala-Leu-OH) [M⁻¹ s⁻¹] | kcat/Km of hydrolysis (CBZ-Lys-Leu-OH) [M⁻¹ s⁻¹] | kcat/Km of hydrolysis (CBZ-Ser-Leu-OH) [M⁻¹ s⁻¹] | estimated CPD-Y activity relative to wild type transformants (fold of wild type) (CBZ-Gly-Leu-OH) | estimated CPD-Y activity relative to wild type transformants (fold of wild type) (CBZ-His-Leu-OH) | estimated CPD-Y activity relative to wild type transformants (fold of wild type) (CBZ-Trp-Leu-OH) | estimated CPD-Y activity relative to wild type transformants (fold of wild type) (CBZ-Pro-Leu-OH) | Compound | Kn,app (H-Val-NH2 as nucleophile) [1] [mM] | Kn,app (H-Val-NH2 as nucleophile) [2] [mM] | Kn,app (H-Val-NH2 as nucleophile) [3] [mM] | Kn,app (H-Val-NH2 as nucleophile) [5] [mM] | further results |
| --- | --- | --- | --- | --- | --- | --- | --- | --- | --- | --- | --- | --- | --- | --- | --- | --- | --- |
| 0.91 | 0.98 | 300000 |  |  |  |  |  |  |  |  |  | carboxypeptidase Y mutant N51Q (enzyme) |  |  |  |  | famax of transpeptidation (nucleophile H-Val-NH2) (FA-Ala-Leu-OH): 0.8; famax of transpeptidation (nucleophile H-Val-NH2) (FA-Ala-Phe-OH): 0.77 |
|  |  |  | 1.83e+06 | 8330 | 40000 | 36700 | 50000 | 0.6 | 0.9 | 1.9 | 2.8 | carboxypeptidase Y mutant 178Ser/215Ala/216Pro (enzyme) |  |  |  |  |  |
|  |  |  | 3.33e+06 | 12000 | 80000 | 61700 | 100000 | 1.1 | 1.1 | 1.2 | 1.8 | carboxypeptidase Y mutant 178Ser (enzyme) |  |  |  |  |  |

The remaining lines, values behind:

| Compound | famax of transpeptidation (nucleophile H-Val-NH2) (FA-Ala-Val-OH) | famax of transpeptidation (nucleophile H-Val-NH2) (FA-Ala-Ala-OH) | kcat/KM of hydrolysis (FA-Phe-Val-OH) [M⁻¹ s⁻¹] | kcat/Km of hydrolysis (CBZ-Phe-Leu-OH) [M⁻¹ s⁻¹] | kcat/Km of hydrolysis (CBZ-Glu-Leu-OH) [M⁻¹ s⁻¹] | kcat/Km of hydrolysis (CBZ-Ala-Leu-OH) [M⁻¹ s⁻¹] | kcat/Km of hydrolysis (CBZ-Lys-Leu-OH) [M⁻¹ s⁻¹] | kcat/Km of hydrolysis (CBZ-Ser-Leu-OH) [M⁻¹ s⁻¹] | estimated CPD-Y activity relative to wild type transformants (fold of wild type) (CBZ-Gly-Leu-OH) | estimated CPD-Y activity relative to wild type transformants (fold of wild type) (CBZ-His-Leu-OH) | estimated CPD-Y activity relative to wild type transformants (fold of wild type) (CBZ-Trp-Leu-OH) | estimated CPD-Y activity relative to wild type transformants (fold of wild type) (CBZ-Pro-Leu-OH) | Kn,app (H-Val-NH2 as nucleophile) [1] [mM] | Kn,app (H-Val-NH2 as nucleophile) [2] [mM] | Kn,app (H-Val-NH2 as nucleophile) [3] [mM] | Kn,app (H-Val-NH2 as nucleophile) [5] [mM] | further results |
| --- | --- | --- | --- | --- | --- | --- | --- | --- | --- | --- | --- | --- | --- | --- | --- | --- | --- |
| C[C@H](NC(=O)C=Cc1ccco1)C(=O)OCc1ccccc1 [FA--Ala--OBzl, FA-Ala-OBzl] |  |  |  |  |  |  |  |  |  |  |  |  | 3.4 ± 0.4 | 3.1 ± 0.4 | 4.2 ± 0.01 | 1.7 ± 0.1 | Kn,app (H-Val-NH2 as nucleophile) [4]: 1.6 ± 0.1 mM |
| CC(C)C[C@H](NC(=O)[C@H](C)NC(=O)C=Cc1ccco1)C(=O)O [FA--Ala--Leu--OH, FA-Ala-Leu-OH] |  |  |  |  |  |  |  |  |  |  |  |  | 4.1 ± 0.1 | 2.4 ± 0.1 | 5.2 ± 0.1 | 1.6 ± 0.1 |  |
| carboxypeptidase Y mutant N51S (enzyme) | 0.13 | 0.88 | 800000 |  |  |  |  |  |  |  |  |  |  |  |  |  |  |
